Experimental findings from the supplement of paper PMC10598134 are described below.

± gives the standard deviation.

This data set can be described thus: collision cross section of modified peptide (TIMS, N2, iRT-aligned); higher = larger / more extended gas-phase ion. The method, boiled down:
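Values are averages of 1–3 technical replicates of the most abundant feature for each charge state. Collision cross section was obtained from the Mason-Schamp equation after 1/K0 calibration with three reference ions and run-wise alignment to the median iRT peptide deviation. Synthetic peptide pools (iRT standard spiked 1:40) were separated on a 120-min nanoflow C18 gradient at 60 °C, analysed on a timsTOF Pro/HT (dda-PASEF, nitrogen, ~2.4 mbar) and identified with MaxQuant.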

Setting [1] is: charge state: 2, modification: hydroxyisobutyryl.
Setting [2] is: charge state: 3, modification: hydroxyisobutyryl.
The mark [3] stands for this setting: charge state: 2, modification: Citrullination (R).
Setting [4] is: charge state: 3, modification: Citrullination (R).
Setting [5] is: charge state: 2, modification: Hydroxyproline.
Setting [6] is: charge state: 3, modification: Hydroxyproline.
Where [7] appears, read: charge state: 2, modification: Methyl (R).
Setting [8] is: charge state: 3, modification: Methyl (R).
The mark [9] stands for this setting: charge state: 2, modification: Acetyl (K).
The mark [10] stands for this setting: charge state: 2, modification: Biotin.
The mark [11] stands for this setting: charge state: 2, modification: Butyryl.
Setting [12] is: charge state: 2, modification: Crotonyl.
Where [13] appears, read: charge state: 2, modification: Dimethyl (K).
Where [14] appears, read: charge state: 2, modification: Formyl.
Setting [15] is: charge state: 2, modification: Glutarylation.
The mark [16] stands for this setting: charge state: 2, modification: GlyGly (K).
Where [17] appears, read: charge state: 3, modification: GlyGly (K).
Where [18] appears, read: charge state: 2, modification: Methyl (K).
Setting [19] is: charge state: 3, modification: Methyl (K).
Where [20] appears, read: charge state: 2, modification: Propionyl.
Setting [21] is: charge state: 2, modification: Succinyl.
The mark [22] stands for this setting: charge state: 3, modification: Trimethyl (K).
Where [23] appears, read: charge state: 2, modification: HexNAc (ST).

For “PGGEGPQCEKTTDVK [_PGGEGPQCEK(hydroxyisobutyryl)TTDVK_]”, the collision cross section was 425.58 ± 0.3 Å² under setting [1] and 464.88 Å² under setting [2].

With “PGGLGSSSLYGLGASRPR [_PGGLGSSSLYGLGASR(Citrullination (R))PR_]”, the collision cross section by setting is: under setting [3], 438.36 ± 0.2 Å²; under setting [4], 521.04 ± 1.9 Å².

As for “PGLKGEQGEPGAPGIR [_PGLKGEQGEPGAP(Hydroxyproline)GIR_]”, the collision cross section is listed as 410.74 ± 0.55 Å² under setting [5] and 508.4 ± 1.3 Å² under setting [6].

Consider PGLQGPR [_P(Hydroxyproline)GLQGPR_], for which, under setting [5], the collision cross section came out at 288.12 ± 3.8 Å².

Under setting [5], PGNSGIR [_P(Hydroxyproline)GNSGIR_] returned a collision cross section of 280.46 ± 3.1 Å².

“PGPKGEAGPTGPQGEPGVR [_P(Hydroxyproline)GPKGEAGPTGPQGEPGVR_]”: the collision cross section by setting is: under setting [5], 432.55 ± 0.34 Å²; under setting [6], 487.03 ± 3.2 Å².

The substance “PGPQPSAETTR [_P(Hydroxyproline)GPQPSAETTR_]” returned a collision cross section under setting [6] of 412.85 Å².

Consider “PGPQPSAETTR [_PGP(Hydroxyproline)QPSAETTR_]”, for which the collision cross section under setting [5] came to 345.87 ± 0.25 Å².

In turn, PGPRGQR [_P(Hydroxyproline)GPRGQR_] displayed a collision cross section under setting [5] of 294.67 Å².

Turning to “PGPVGPPGSGGLK [_PGPVGPP(Hydroxyproline)GSGGLK_]”, under setting [5], the collision cross section is on record as 349.24 ± 3.9 Å².

For “PGSPGPPGSPGPR [_PGSP(Hydroxyproline)GPPGSPGPR_]”, the collision cross section under setting [6] is 422.04 ± 4.8 Å².

Regarding “PGSPGPPGSPGPR [_PGSPGPPGSP(Hydroxyproline)GPR_]”, the collision cross section under setting [5] was determined as 352.39 ± 1.1 Å².

With “PGTPAGYGRGR [_PGTPAGYGR(Citrullination (R))GR_]”, the collision cross section runs as follows: under setting [3], 345.81 ± 4.8 Å²; under setting [4], 431.14 Å².

For the substance PGTPAGYGRGR [_PGTPAGYGR(Methyl (R))GR_], the collision cross section runs as follows: under setting [7], 362.47 ± 6.7 Å²; under setting [8], 449.19 ± 8.3 Å².

In turn, “PLPVALQTRLAK [_PLPVALQTR(Citrullination (R))LAK_]” gave a collision cross section under setting [3] of 391.36 ± 0.54 Å².

As to “PLPVALQTRLAK [_PLPVALQTR(Methyl (R))LAK_]”, the collision cross section is on record as 400.79 ± 0.32 Å² under setting [7] and 474 ± 2.6 Å² under setting [8].

“PLRAASPFR [_PLR(Citrullination (R))AASPFR_]”: the collision cross section reads like this: under setting [3], 334.99 ± 0.26 Å²; under setting [4], 442.41 Å².

In the case of PLRAASPFR [_PLR(Methyl (R))AASPFR_], the collision cross section under setting [7] came out at 351.73 ± 0.9 Å² and the collision cross section under setting [8] is given as 447.48 ± 3.2 Å².

PPGFSPFR [_PP(Hydroxyproline)GFSPFR_] showed a collision cross section under setting [5] of 331.47 ± 1.3 Å².

The substance “PPGFSPFRSSR [_PP(Hydroxyproline)GFSPFRSSR_]” yielded a collision cross section under setting [5] of 367.16 Å² and a collision cross section under setting [6] of 458.87 ± 0.35 Å².

For “PRGVISTPVIR [_PR(Citrullination (R))GVISTPVIR_]”, the collision cross section is 367.21 ± 0.24 Å² under setting [3] and 478.04 Å² under setting [4].

For the substance PRGVISTPVIR [_PR(Methyl (R))GVISTPVIR_], the collision cross section is 373.92 Å² under setting [7] and 447.15 ± 2.7 Å² under setting [8].

Substance “PRLPATGTFK [_PR(Citrullination (R))LPATGTFK_]” returned a collision cross section under setting [3] of 351.67 ± 5.4 Å².

As for PRLPATGTFK [_PR(Methyl (R))LPATGTFK_], the collision cross section is, setting by setting: under setting [7], 353.59 ± 0.84 Å²; under setting [8], 458.58 ± 3 Å².

As for “PRTPTAPAVNLAGAR [_PR(Citrullination (R))TPTAPAVNLAGAR_]”, the collision cross section runs as follows: under setting [3], 411.43 ± 0.98 Å²; under setting [4], 471.47 ± 0.76 Å².

“PRTPTAPAVNLAGAR [_PR(Methyl (R))TPTAPAVNLAGAR_]”: under setting [8], the collision cross section is on record as 486.43 ± 2.3 Å².

Under setting [4], “PSIHGGSGGRGVSVSSAR [_PSIHGGSGGR(Citrullination (R))GVSVSSAR_]” showed a collision cross section of 486.3 ± 5 Å².

Regarding “PSVGSQSNQAGQGKR [_PSVGSQSNQAGQGK(Acetyl (K))R_]”, the collision cross section by setting is: under setting [9], 409.31 ± 3.1 Å²; (charge state: 3, modification: Acetyl (K)) 465.77 ± 2.3 Å².

For “PSVGSQSNQAGQGKR [_PSVGSQSNQAGQGK(Biotin)R_]”, the collision cross section runs as follows: under setting [10], 421.78 ± 0.67 Å²; (charge state: 3, modification: Biotin) 480.61 ± 0.34 Å².

For the substance “PSVGSQSNQAGQGKR [_PSVGSQSNQAGQGK(Butyryl)R_]”, the collision cross section is, setting by setting: under setting [11], 416.92 ± 1.1 Å²; (charge state: 3, modification: Butyryl) 475.14 ± 7.3 Å².

With “PSVGSQSNQAGQGKR [_PSVGSQSNQAGQGK(Crotonyl)R_]”, the collision cross section under setting [12] is listed as 420.02 ± 0.41 Å² and the collision cross section (charge state: 3, modification: Crotonyl) is on record as 468.33 ± 1.6 Å².

In turn, “PSVGSQSNQAGQGKR [_PSVGSQSNQAGQGK(Dimethyl (K))R_]” returned a collision cross section under setting [13] of 425.54 ± 3 Å² and a collision cross section (charge state: 3, modification: Dimethyl (K)) of 470.05 ± 1.2 Å².

In the case of “PSVGSQSNQAGQGKR [_PSVGSQSNQAGQGK(Formyl)R_]”, the collision cross section turned out to be 402.96 ± 2 Å² under setting [14] and 470.1 ± 1.8 Å² (charge state: 3, modification: Formyl).

Regarding “PSVGSQSNQAGQGKR [_PSVGSQSNQAGQGK(Gluratylation)R_]”, the collision cross section is reported as 412.64 ± 1.7 Å² under setting [15] and 479.06 ± 9.1 Å² (charge state: 3, modification: Glutarylation).

As to “PSVGSQSNQAGQGKR [_PSVGSQSNQAGQGK(GlyGly (K))R_]”, the collision cross section under setting [16] turned out to be 441.17 ± 1.6 Å² and the collision cross section under setting [17] worked out at 461.66 ± 1.1 Å².

Regarding “PSVGSQSNQAGQGKR [_PSVGSQSNQAGQGK(Malonyl)R_]”, the collision cross section is recorded as 406.87 ± 1.8 Å² (charge state: 2, modification: Malonyl) and 446.38 Å² (charge state: 3, modification: Malonyl).

As to “PSVGSQSNQAGQGKR [_PSVGSQSNQAGQGK(Methyl (K))R_]”, the collision cross section is, setting by setting: under setting [18], 426.09 ± 2.3 Å²; under setting [19], 471.73 ± 2.8 Å².

“PSVGSQSNQAGQGKR [_PSVGSQSNQAGQGK(Propionyl)R_]”: the collision cross section was 412.6 ± 0.64 Å² under setting [20] and 473.2 ± 1.4 Å² (charge state: 3, modification: Propionyl).

For “PSVGSQSNQAGQGKR [_PSVGSQSNQAGQGK(Succinyl)R_]”, the collision cross section amounted to 415.39 ± 2 Å² under setting [21] and 455.72 ± 2.4 Å² (charge state: 3, modification: Succinyl).

With “PSVGSQSNQAGQGKR [_PSVGSQSNQAGQGK(Trimethyl (K))R_]”, the collision cross section under setting [22] was 463.16 ± 1.5 Å².

As for “PSVGSQSNQAGQGKR [_PSVGSQSNQAGQGK(hydroxyisobutyryl)R_]”, the collision cross section under setting [1] came out at 418.62 ± 0.53 Å² and the collision cross section under setting [2] was found to be 477.11 ± 9.7 Å².

Under setting [9], PSVSTKLISK [_PSVSTK(Acetyl (K))LISK_] gave a collision cross section of 351 ± 0.96 Å².

For PSVSTKLISK [_PSVSTK(Biotin)LISK_], the collision cross section under setting [10] came to 375.49 Å².

For the substance PSVSTKLISK [_PSVSTK(Butyryl)LISK_], under setting [11], the collision cross section worked out at 357.77 ± 1.8 Å².

Substance PSVSTKLISK [_PSVSTK(Crotonyl)LISK_] returned a collision cross section under setting [12] of 357.15 ± 0.8 Å².

PSVSTKLISK [_PSVSTK(Dimethyl (K))LISK_] registered a collision cross section under setting [13] of 362.9 ± 0.28 Å².

With PSVSTKLISK [_PSVSTK(Formyl)LISK_], the collision cross section under setting [14] came out at 346.92 ± 1.1 Å².

Take “PSVSTKLISK [_PSVSTK(Gluratylation)LISK_]”: the collision cross section under setting [15] was found to be 361.01 ± 0.71 Å².

PSVSTKLISK [_PSVSTK(GlyGly (K))LISK_]: the collision cross section was 370.29 ± 0.38 Å² under setting [16] and 434.33 ± 3 Å² under setting [17].

As for PSVSTKLISK [_PSVSTK(Methyl (K))LISK_], the collision cross section is, setting by setting: under setting [18], 356.57 ± 0.35 Å²; under setting [19], 424.71 ± 5.3 Å².

Under setting [20], PSVSTKLISK [_PSVSTK(Propionyl)LISK_] had a collision cross section of 354.68 ± 0.33 Å².

Take PSVSTKLISK [_PSVSTK(Succinyl)LISK_]: under setting [21], the collision cross section amounted to 355.43 ± 0.73 Å².

“PSVSTKLISK [_PSVSTK(Trimethyl (K))LISK_]”: the collision cross section runs as follows: (charge state: 2, modification: Trimethyl (K)) 364.51 ± 0.61 Å²; under setting [22], 427.1 ± 2.4 Å².

For “PSVSTKLISK [_PSVSTK(hydroxyisobutyryl)LISK_]”, the collision cross section under setting [1] worked out at 359.8 ± 1.9 Å².

On to “QGNAVTLGDYYQGR [_QGNAVT(HexNAc (ST))LGDYYQGR_]”, for which the collision cross section under setting [23] was found to be 432.99 ± 0.62 Å².

“QQETAAAETETR [_QQETAAAETET(HexNAc (ST))R_]”: the collision cross section is 397.03 ± 0.67 Å² under setting [23] and 483.44 ± 0.18 Å² (charge state: 3, modification: HexNAc (ST)).

In the case of “RFGGPVHHQAQR [_R(Citrullination (R))FGGPVHHQAQR_]”, the collision cross section was found to be 387.08 ± 0.89 Å² under setting [3] and 477.19 ± 0.94 Å² under setting [4].
